To fix the notation:
T1: Human CD3eg linker (human)
T1 construct: Single-chain construct; also called recombinant human CD3
T1 chain: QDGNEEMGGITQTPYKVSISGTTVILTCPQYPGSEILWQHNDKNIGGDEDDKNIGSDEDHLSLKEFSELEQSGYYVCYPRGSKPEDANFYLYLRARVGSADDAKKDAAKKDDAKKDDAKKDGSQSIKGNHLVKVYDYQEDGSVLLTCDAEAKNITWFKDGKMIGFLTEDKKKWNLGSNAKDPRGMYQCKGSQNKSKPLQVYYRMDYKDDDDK

B1: H183/L072 VL S52F (antibody, name in Kabat numbering, V domains shown)
VH: QVQLVESGGGLVQPGRSLRLSCAASGFTFSNAWMHWVRQAPGKGLEWVAQIKDKGNAYAAYYAPSVKGRFTISRDDSKNSIYLQMNSLKTEDTAVYYCHYVHYASASTVLPAFGVDAWGQGTTVTVSS
VL: DIVMTQSPLSLPVTPGEPASISCQASQELVHMNRNTYLHWYQQKPGQAPRLLIYKVFNRFPGVPDRFSGSGSGTDFTLKISRVEAEDVGVYYCAQGTSVPFTFGQGTKLEIK
B2: H183/L072 VL S52H (antibody, name in Kabat numbering, V domains shown)
VH: QVQLVESGGGLVQPGRSLRLSCAASGFTFSNAWMHWVRQAPGKGLEWVAQIKDKGNAYAAYYAPSVKGRFTISRDDSKNSIYLQMNSLKTEDTAVYYCHYVHYASASTVLPAFGVDAWGQGTTVTVSS
VL: DIVMTQSPLSLPVTPGEPASISCQASQELVHMNRNTYLHWYQQKPGQAPRLLIYKVHNRFPGVPDRFSGSGSGTDFTLKISRVEAEDVGVYYCAQGTSVPFTFGQGTKLEIK
B3: H183/L072 VL S52I (antibody, name in Kabat numbering, V domains shown)
VH: QVQLVESGGGLVQPGRSLRLSCAASGFTFSNAWMHWVRQAPGKGLEWVAQIKDKGNAYAAYYAPSVKGRFTISRDDSKNSIYLQMNSLKTEDTAVYYCHYVHYASASTVLPAFGVDAWGQGTTVTVSS
VL: DIVMTQSPLSLPVTPGEPASISCQASQELVHMNRNTYLHWYQQKPGQAPRLLIYKVINRFPGVPDRFSGSGSGTDFTLKISRVEAEDVGVYYCAQGTSVPFTFGQGTKLEIK
B4: H183/L072 VL S52N (antibody, name in Kabat numbering, V domains shown)
VH: QVQLVESGGGLVQPGRSLRLSCAASGFTFSNAWMHWVRQAPGKGLEWVAQIKDKGNAYAAYYAPSVKGRFTISRDDSKNSIYLQMNSLKTEDTAVYYCHYVHYASASTVLPAFGVDAWGQGTTVTVSS
VL: DIVMTQSPLSLPVTPGEPASISCQASQELVHMNRNTYLHWYQQKPGQAPRLLIYKVNNRFPGVPDRFSGSGSGTDFTLKISRVEAEDVGVYYCAQGTSVPFTFGQGTKLEIK
B5: H183/L072 VL S52K (antibody, name in Kabat numbering, V domains shown)
VH: QVQLVESGGGLVQPGRSLRLSCAASGFTFSNAWMHWVRQAPGKGLEWVAQIKDKGNAYAAYYAPSVKGRFTISRDDSKNSIYLQMNSLKTEDTAVYYCHYVHYASASTVLPAFGVDAWGQGTTVTVSS
VL: DIVMTQSPLSLPVTPGEPASISCQASQELVHMNRNTYLHWYQQKPGQAPRLLIYKVKNRFPGVPDRFSGSGSGTDFTLKISRVEAEDVGVYYCAQGTSVPFTFGQGTKLEIK
B6: H183/L072 VL S52L (antibody, name in Kabat numbering, V domains shown)
VH: QVQLVESGGGLVQPGRSLRLSCAASGFTFSNAWMHWVRQAPGKGLEWVAQIKDKGNAYAAYYAPSVKGRFTISRDDSKNSIYLQMNSLKTEDTAVYYCHYVHYASASTVLPAFGVDAWGQGTTVTVSS
VL: DIVMTQSPLSLPVTPGEPASISCQASQELVHMNRNTYLHWYQQKPGQAPRLLIYKVLNRFPGVPDRFSGSGSGTDFTLKISRVEAEDVGVYYCAQGTSVPFTFGQGTKLEIK
B7: H183/L072 VL S52W (antibody, name in Kabat numbering, V domains shown)
VH: QVQLVESGGGLVQPGRSLRLSCAASGFTFSNAWMHWVRQAPGKGLEWVAQIKDKGNAYAAYYAPSVKGRFTISRDDSKNSIYLQMNSLKTEDTAVYYCHYVHYASASTVLPAFGVDAWGQGTTVTVSS
VL: DIVMTQSPLSLPVTPGEPASISCQASQELVHMNRNTYLHWYQQKPGQAPRLLIYKVWNRFPGVPDRFSGSGSGTDFTLKISRVEAEDVGVYYCAQGTSVPFTFGQGTKLEIK
B8: H183/L072 VL S52V (antibody, name in Kabat numbering, V domains shown)
VH: QVQLVESGGGLVQPGRSLRLSCAASGFTFSNAWMHWVRQAPGKGLEWVAQIKDKGNAYAAYYAPSVKGRFTISRDDSKNSIYLQMNSLKTEDTAVYYCHYVHYASASTVLPAFGVDAWGQGTTVTVSS
VL: DIVMTQSPLSLPVTPGEPASISCQASQELVHMNRNTYLHWYQQKPGQAPRLLIYKVVNRFPGVPDRFSGSGSGTDFTLKISRVEAEDVGVYYCAQGTSVPFTFGQGTKLEIK
B9: H183/L072 VL S52R (antibody, name in Kabat numbering, V domains shown)
VH: QVQLVESGGGLVQPGRSLRLSCAASGFTFSNAWMHWVRQAPGKGLEWVAQIKDKGNAYAAYYAPSVKGRFTISRDDSKNSIYLQMNSLKTEDTAVYYCHYVHYASASTVLPAFGVDAWGQGTTVTVSS
VL: DIVMTQSPLSLPVTPGEPASISCQASQELVHMNRNTYLHWYQQKPGQAPRLLIYKVRNRFPGVPDRFSGSGSGTDFTLKISRVEAEDVGVYYCAQGTSVPFTFGQGTKLEIK
B10: H183/L072 VL S52M (antibody, name in Kabat numbering, V domains shown)
VH: QVQLVESGGGLVQPGRSLRLSCAASGFTFSNAWMHWVRQAPGKGLEWVAQIKDKGNAYAAYYAPSVKGRFTISRDDSKNSIYLQMNSLKTEDTAVYYCHYVHYASASTVLPAFGVDAWGQGTTVTVSS
VL: DIVMTQSPLSLPVTPGEPASISCQASQELVHMNRNTYLHWYQQKPGQAPRLLIYKVMNRFPGVPDRFSGSGSGTDFTLKISRVEAEDVGVYYCAQGTSVPFTFGQGTKLEIK
B11: H183/L072 VL S52G (antibody, name in Kabat numbering, V domains shown)
VH: QVQLVESGGGLVQPGRSLRLSCAASGFTFSNAWMHWVRQAPGKGLEWVAQIKDKGNAYAAYYAPSVKGRFTISRDDSKNSIYLQMNSLKTEDTAVYYCHYVHYASASTVLPAFGVDAWGQGTTVTVSS
VL: DIVMTQSPLSLPVTPGEPASISCQASQELVHMNRNTYLHWYQQKPGQAPRLLIYKVGNRFPGVPDRFSGSGSGTDFTLKISRVEAEDVGVYYCAQGTSVPFTFGQGTKLEIK
B12: H183/L072 VL S52Q (antibody, name in Kabat numbering, V domains shown)
VH: QVQLVESGGGLVQPGRSLRLSCAASGFTFSNAWMHWVRQAPGKGLEWVAQIKDKGNAYAAYYAPSVKGRFTISRDDSKNSIYLQMNSLKTEDTAVYYCHYVHYASASTVLPAFGVDAWGQGTTVTVSS
VL: DIVMTQSPLSLPVTPGEPASISCQASQELVHMNRNTYLHWYQQKPGQAPRLLIYKVQNRFPGVPDRFSGSGSGTDFTLKISRVEAEDVGVYYCAQGTSVPFTFGQGTKLEIK
B13: H183/L072 VL S93A (antibody, name in Kabat numbering, V domains shown)
VH: QVQLVESGGGLVQPGRSLRLSCAASGFTFSNAWMHWVRQAPGKGLEWVAQIKDKGNAYAAYYAPSVKGRFTISRDDSKNSIYLQMNSLKTEDTAVYYCHYVHYASASTVLPAFGVDAWGQGTTVTVSS
VL: DIVMTQSPLSLPVTPGEPASISCQASQELVHMNRNTYLHWYQQKPGQAPRLLIYKVSNRFPGVPDRFSGSGSGTDFTLKISRVEAEDVGVYYCAQGTAVPFTFGQGTKLEIK
B14: H183/L072 VL S52T (antibody, name in Kabat numbering, V domains shown)
VH: QVQLVESGGGLVQPGRSLRLSCAASGFTFSNAWMHWVRQAPGKGLEWVAQIKDKGNAYAAYYAPSVKGRFTISRDDSKNSIYLQMNSLKTEDTAVYYCHYVHYASASTVLPAFGVDAWGQGTTVTVSS
VL: DIVMTQSPLSLPVTPGEPASISCQASQELVHMNRNTYLHWYQQKPGQAPRLLIYKVTNRFPGVPDRFSGSGSGTDFTLKISRVEAEDVGVYYCAQGTSVPFTFGQGTKLEIK

The test concerns the target T1, Human CD3eg linker. Nature of the test: SPR; fold vs parent H183/L072. In general terms: SPR reads the build-up and loss of mass on a sensor chip optically.
As for B1, the “fold change of affinity” value was 1.6 fold.

Regarding B2, the “fold change of affinity” value turned out to be 1.7 fold.

B3: the “fold change of affinity” value amounted to 1.5 fold. As for B4, the figure is 1.5 fold.

With B5, the “fold change of affinity” value turned out to be 1.9 fold.

For B6, the “fold change of affinity” value is 1.6 fold. For the molecule B7, the “fold change of affinity” value came out at 1.4 fold.

On to B8, for which the “fold change of affinity” value came out at 1.6 fold. The same measure for B9: 1.8 fold; for B10: 1.4 fold; for B11: 1.4 fold. For the molecule B12, the “fold change of affinity” value worked out at 1.4 fold.

For the molecule B13, the “fold change of affinity” value worked out at 1.1 fold. As to B14, the “fold change of affinity” value is 1.3 fold.

Source of the values: patent publication US20210388087A1 (Chugai, published 2021).
